In the Immune Epitope Database (IEDB) one finds Kd data, which are given here for 41 sequences.

Among the targets are HLA-A*31:01; HLA-A*03:01; HLA-A*33:01; HLA-A*68:01; HLA-A*11:01.
Common to all, as to assay: IEDB peptide-MHC binding, purified MHC/competitive/radioactivity; filed as Kd, often an IC50 or EC50 that approximates it; ≥ and ≤ were set here for values at or beyond the usual limits of such assays
[1] abbreviates: source organism: Vaccinia virus WR.
Setting [2] is: source organism: SARS coronavirus Tor2.
Setting [3] is: source organism: Dengue virus 1 Brazil/97-11/1997.
Where [4] appears, read: source organism: Dengue virus 4 Philippines/H241/1956.
[5] abbreviates: source organism: Mammarenavirus whitewaterense.
The mark [6] stands for this setting: source organism: Dengue virus 2 Jamaica/1409/1983.
[7] abbreviates: source organism: Dengue virus 3 Martinique/1243/1999.
[8] abbreviates: source organism: Dengue virus 3 Singapore/8120/1995.
Setting [9] is: source organism: Mammarenavirus machupoense.

GADPNACDK: the Kd with HLA-A*31:01 (setting [1]) is 3840 nM; with HLA-A*03:01 (setting [1]) it was no less than 37700 nM; with HLA-A*33:01 (setting [1]), 8360 nM; with HLA-A*68:01 (setting [1]) it was 90.6 nM; with HLA-A*11:01 (setting [1]) it was 6240 nM.
Turning to VVNARLRAK, the Kd with HLA-A*31:01 (setting [2]) is 199 nM; in the assay with HLA-A*03:01 (setting [2]), 13.8 nM; in the assay with HLA-A*33:01 (setting [2]) it was no less than 24900 nM; with HLA-A*68:01 (setting [2]), 8180 nM; in the assay with HLA-A*11:01 (setting [2]) it was 130 nM.
RLGLVLDDY: the Kd with HLA-A*31:01 (setting [1]) was no less than 77900 nM; with HLA-A*03:01 (setting [1]), 11.1 nM; with HLA-A*33:01 (setting [1]) it was no less than 77700 nM; in the assay with HLA-A*68:01 (setting [1]), no less than 44500 nM; in the assay with HLA-A*11:01 (setting [1]), 3560 nM.
For SIMETIDPVY, in that order: 9760 nM, 222 nM, no less than 36600 nM, 29 nM and 4.36 nM.
With EDTMTYKCPR, the Kd with HLA-A*33:01 (setting [3]) came out at 804 nM.
On to RMLNILNGRK, for which, in the assay with HLA-A*03:01 (setting [4]), the Kd turned out to be 13.8 nM.
Take DIKLDAVLDR: the Kd is 17900 nM with HLA-A*31:01 (setting [1]); no less than 41600 nM with HLA-A*03:01 (setting [1]); 156 nM with HLA-A*33:01 (setting [1]); 473 nM in the assay with HLA-A*68:01 (setting [1]); no less than 69800 nM with HLA-A*11:01 (setting [1]).
As for ISKIYTLIYR, the Kd is 0.337 nM with HLA-A*31:01 (setting [1]); 691 nM with HLA-A*03:01 (setting [1]); 0.458 nM with HLA-A*33:01 (setting [1]); 5.02 nM with HLA-A*68:01 (setting [1]); 226 nM with HLA-A*11:01 (setting [1]).
For TIQRFSSLR, in that order: 0.55 nM, 5210 nM, 5.54 nM, 4.86 nM and 8.93 nM.
SVKTQFNYFK: the Kd in the assay with HLA-A*31:01 (setting [2]) turned out to be 24.1 nM; in the assay with HLA-A*03:01 (setting [2]), 144 nM; with HLA-A*33:01 (setting [2]), 808 nM; with HLA-A*68:01 (setting [2]) it was 80 nM; with HLA-A*11:01 (setting [2]) it was 21.1 nM.
Regarding RLGVRATRK, in the assay with HLA-A*68:01 (source organism: Hepacivirus hominis), the dissociation constant Kd is no less than 80000 nM.
Take ETFKIDAVR: the Kd is 107 nM with HLA-A*31:01 (setting [1]); no less than 28700 nM with HLA-A*03:01 (setting [1]); 20.7 nM in the assay with HLA-A*33:01 (setting [1]); 1.61 nM with HLA-A*68:01 (setting [1]); 2730 nM with HLA-A*11:01 (setting [1]).
In the same order, the values of EIIGGNDMY are no less than 77900 nM, 5310 nM, no less than 77700 nM, 55 nM and no less than 35100 nM.
Regarding CTDESRDRK, the Kd is no less than 54700 nM with HLA-A*31:01 (setting [1]); 5960 nM with HLA-A*03:01 (setting [1]); no less than 77700 nM with HLA-A*33:01 (setting [1]); 169 nM in the assay with HLA-A*68:01 (setting [1]); 219 nM with HLA-A*11:01 (setting [1]).
Consider AINSVPWSK, for which the Kd is 1180 nM with HLA-A*31:01 (setting [2]); 13 nM with HLA-A*03:01 (setting [2]); 10800 nM in the assay with HLA-A*33:01 (setting [2]); 1780 nM with HLA-A*68:01 (setting [2]); 1.85 nM in the assay with HLA-A*11:01 (setting [2]).
With KIGHHVELQH, the Kd with HLA-A*31:01 (setting [5]) is 25.2 nM; with HLA-A*03:01 (setting [5]), no less than 47100 nM; with HLA-A*33:01 (setting [5]), no less than 49800 nM; with HLA-A*68:01 (setting [5]), no less than 70100 nM; with HLA-A*11:01 (setting [5]) it was no less than 69700 nM.
Consider ELALTDVEK, for which the Kd with HLA-A*31:01 (setting [1]) is 9810 nM; in the assay with HLA-A*03:01 (setting [1]) it was 1560 nM; with HLA-A*33:01 (setting [1]) it was 5810 nM; with HLA-A*68:01 (setting [1]) it was 1.16 nM; in the assay with HLA-A*11:01 (setting [1]), 513 nM.
With RVIDPRRCLK, the Kd in the assay with HLA-A*31:01 (setting [3]) turned out to be 0.766 nM; with HLA-A*03:01 (setting [3]), 8.63 nM; with HLA-A*68:01 (setting [3]), 28 nM.
Consider RFWELVDRER, for which the Kd in the assay with HLA-A*31:01 (setting [6]) was 0.343 nM.
Regarding GFFLRKLTSR, the Kd in the assay with HLA-A*31:01 (setting [7]) turned out to be 1.35 nM.
On to SGNDIANCLR, for which the Kd in the assay with HLA-A*33:01 (setting [3]) came out at 141 nM.
As to GAGLAFSLMK, in the assay with HLA-A*11:01 (setting [3]), the Kd worked out at 93.5 nM.
For VTFKVPHAKR, in the assay with HLA-A*68:01 (setting [4]), the Kd stood at 21.5 nM.
With IMDLHPGAGK, the dissociation constant Kd with HLA-A*03:01 (setting [6]) was found to be 40.9 nM.
On to GLLNGQGPMK, for which the Kd with HLA-A*03:01 (setting [7]) stood at 9.66 nM.
Consider RQMEGEGVFK, for which, in the assay with HLA-A*03:01 (source organism: Dengue virus 2 Peru/IQT2913/1996), the Kd was determined as 23.9 nM.
In the case of AMCLNTFVLK, the Kd with HLA-A*03:01 (setting [8]) was determined as 9.37 nM; with HLA-A*11:01 (setting [8]), 23.3 nM.
Turning to SDGTFKIGLH, the Kd is no less than 36100 nM with HLA-A*31:01 (setting [9]) and no less than 47500 nM with HLA-A*33:01 (setting [9]).
Take RLKMDKLELK: the Kd with HLA-A*03:01 (setting [7]) is 34.6 nM.
In the case of ISYDPKFEK, the Kd in the assay with HLA-A*03:01 (setting [4]) amounted to 114 nM; with HLA-A*11:01 (setting [4]), 101 nM.
Take IFSLKDTLKR: the Kd with HLA-A*33:01 (setting [7]) came out at 320 nM.
For LTYQNKVVK, the results for the Kd with HLA-A*03:01 (setting [7]) and with HLA-A*11:01 (setting [7]) were 11.8 nM and 70.5 nM, respectively.
Consider LMSGKGIGK, for which the Kd in the assay with HLA-A*03:01 (setting [6]) was 75.2 nM.
As for LTNTTTESR, the Kd with HLA-A*68:01 (setting [6]) is 73.6 nM.
Consider STGSQLAKR, for which, in the assay with HLA-A*31:01 (setting [3]), the Kd was found to be 215 nM.
In the case of HSGVDVFYK, the Kd with HLA-A*11:01 (setting [4]) was 170 nM.
For the sequence ISQGAGWSLK, the Kd with HLA-A*03:01 (setting [6]) turned out to be 199 nM; with HLA-A*11:01 (setting [6]), 214 nM.
For the sequence AVAPSMTMR, in the assay with HLA-A*11:01 (setting [6]), the Kd amounted to 32.8 nM.
Turning to MLQGRGPLK, the dissociation constant Kd is no more than 1 nM in the assay with HLA-A*03:01 (setting [6]) and 124 nM with HLA-A*11:01 (setting [6]).
With LAMGIMMLK, the Kd was 76.3 nM with HLA-A*03:01 (setting [3]), 20.6 nM with HLA-A*68:01 (setting [3]) and 32.7 nM in the assay with HLA-A*11:01 (setting [3]).
Regarding GMSYSMCTGK, the Kd was 30.8 nM with HLA-A*03:01 (setting [6]) and 440 nM in the assay with HLA-A*11:01 (setting [6]).
